Test results as given in the supplement of paper PMC10126150.
± gives the standard deviation of the averaged measurements.

Each sequence was assayed on ATP (assay: switch fluorescence ratio, 500 uM ATP over buffer (Cy3 cluster intensity, sum of 5 cycles each) (fold (ratio)); higher = stronger signal-on switching upon ATP binding; sequences stand for … in TCGTCGGCAGCGTCAGATGTGTATAAGAGACAGTTTTTTTTTTTTTTTTTTTTTTTTT…TC). Settings: aptamer strand: ATP DNA aptamer (quencher-CACCTGGGGGAGTATTGCGGAGGAAGG + anchor), 100 nM annealed; ATP concentration: 500 uM.
In short: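 Imaging in selection buffer was followed by imaging after 15 min with 500 uM ATP at 22 °C, for Cy3-labelled switching-strand clusters annealed to 100 nM quencher-labelled ATP aptamer on a modified Illumina MiSeq flow-cell. Five of these buffer/ATP cycles ran, separated by NaOH stripping and re-annealing. The fluorescence ratio per cluster is summed target-cycle over summed buffer-cycle Cy3 intensity, averaged per switch-domain sequence; clusters outside 100-1000 RFU were removed.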
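Note: ATP exposure 15 min at 22 °C before imaging.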

First: ATCCCAGGTA
Second: TTATGACAGG
The switch fluorescence ratio of the first is higher: 2.009 ± 0.0073 for the first, 0.993 ± 0.022 for the second.

ATTTGAATTA and ATGGCTGTCA are the same in switch fluorescence ratio: 1.01 ± 0.034 for the first, 1.012 ± 0.0012 for the second.

AGATGTAGGC and ATTGGCTGTT are within error of each other in switch fluorescence ratio: 1.03 ± 0.038 for the first, 0.997 ± 0.052 for the second.

AGGTGGGGGC and TAACTTATAA are within error of each other in switch fluorescence ratio: 1.003 ± 0.0095 for the first, 0.991 ± 0.0024 for the second.

TCGAGTATCT and AGGGGGTTAT are within error of each other in switch fluorescence ratio: 0.999 ± 0.019 for the first, 1.01 ± 0.03 for the second.

Compared with TCCGACGGTT, CAGTTTAAGG is lower in switch fluorescence ratio: 3.31 ± 0.46 for the first, 1.01 ± 0.024 for the second.

Compared with CGGTCATACT, TATCGGGAGC is lower in switch fluorescence ratio: 1.21 ± 0.029 for the first, 0.986 ± 0.026 for the second.

GGGGTGAGGT and GCTAGGGGTA are within error of each other in switch fluorescence ratio: 0.997 ± 0.016 for the first, 0.987 ± 0.012 for the second.

TCGGTATGAA and GGGGCCGAAT are the same in switch fluorescence ratio: 1.01 ± 0.018 for the first, 1.01 ± 0.021 for the second.

TACTGCGGCA and TTATCGGGCT are within error of each other in switch fluorescence ratio: 1.04 ± 0.031 for the first, 1.02 ± 0.023 for the second.

CGAGAAATTT and GGGGTATGGC are within error of each other in switch fluorescence ratio: 1.01 ± 0.022 for the first, 1.03 ± 0.023 for the second.

First: AACGAGTGAC
Second: CCAATAACGC
The switch fluorescence ratio of the first is lower: 1.04 ± 0.019 for the first, 1.22 ± 0.074 for the second.

AAAATCTGTT and ATGCTGGGGG are within error of each other in switch fluorescence ratio: 1.02 ± 0.061 for the first, 0.994 ± 0.013 for the second.

First: GGTATCCGGG
Second: TAATCACGGG
The switch fluorescence ratio of the first is lower: 0.974 ± 0.019 for the first, 1.09 ± 0.017 for the second.

TCATAAACTT and TAGGGCTGTG are within error of each other in switch fluorescence ratio: 1.09 ± 0.058 for the first, 0.995 ± 0.059 for the second.

AAAGGATCGG and ATTAGGAAAA are within error of each other in switch fluorescence ratio: 0.9923 ± 0.0056 for the first, 1.02 ± 0.025 for the second.

TAAAGGGATG and TGGGATGCAT are within error of each other in switch fluorescence ratio: 0.956 ± 0.017 for the first, 0.991 ± 0.034 for the second.

GGGGTGTTCA and GAGAATCACG are within error of each other in switch fluorescence ratio: 0.999 ± 0.047 for the first, 0.9961 ± 0.0024 for the second.

First: TTTTGTTTT
Second: GGACTATGCT
The switch fluorescence ratio of the first is higher: 1.02 ± 0.027 for the first, 0.962 ± 0.011 for the second.

First: TTGCGTATGA
Second: TTCCCAGATG
The switch fluorescence ratio of the first is lower: 1.04 ± 0.063 for the first, 1.81 ± 0.41 for the second.

GGGTATCCTT and GTTAGTTACT are the same in switch fluorescence ratio: 1.01 ± 0.025 for the first, 1.01 ± 0.057 for the second.

GAGCGGGATG and GCTGGCGTCA are within error of each other in switch fluorescence ratio: 0.986 ± 0.031 for the first, 1 ± 0.05 for the second.

TACTTCTGTG and GTAGAAGGGT are within error of each other in switch fluorescence ratio: 1 ± 0.018 for the first, 1.01 ± 0.016 for the second.

GACTGGCACG and GATTTGGCTG are within error of each other in switch fluorescence ratio: 1.03 ± 0.034 for the first, 0.986 ± 0.019 for the second.

GTAGGGTCAG and ATTTGTCAGA are within error of each other in switch fluorescence ratio: 0.994 ± 0.027 for the first, 0.98 ± 0.015 for the second.

ATCATAATGT and GACAGCGGGG are within error of each other in switch fluorescence ratio: 0.983 ± 0.032 for the first, 0.999 ± 0.036 for the second.

ATGGTCGGGG and TTTACACGAT are within error of each other in switch fluorescence ratio: 0.995 ± 0.042 for the first, 1.01 ± 0.019 for the second.

ATGGAAAATT and AAGTGGAGGC are the same in switch fluorescence ratio: 1.04 ± 0.02 for the first, 1.04 ± 0.0072 for the second.

GTGAAAGGCA and AAGGAATGCA are within error of each other in switch fluorescence ratio: 1.004 ± 0.005 for the first, 0.993 ± 0.022 for the second.

First: CGATGGCGAC
Second: CGTTTGGTGT
The switch fluorescence ratio of the first is higher: 1.016 ± 0.0051 for the first, 1.0115 ± 1.5e-05 for the second.

First: AACGCCATGC
Second: GTGGGGAGGG
The switch fluorescence ratio of the first is higher: 2.68 ± 0.38 for the first, 1 ± 0.016 for the second.

GGAGTGTTGG and TGCAAGGGGG are within error of each other in switch fluorescence ratio: 1.002 ± 0.0051 for the first, 1.06 ± 0.077 for the second.

GTTGGTTAGA and GGGTTTCGTT are within error of each other in switch fluorescence ratio: 0.9776 ± 0.005 for the first, 0.99 ± 0.05 for the second.

GATAAAAGGC and CATTTTCCGG are within error of each other in switch fluorescence ratio: 0.997 ± 0.024 for the first, 1.11 ± 0.16 for the second.

TTTGGGCTTC and GCTAAAATAG are within error of each other in switch fluorescence ratio: 1.0067 ± 0.00097 for the first, 1.11 ± 0.15 for the second.

First: GCTGGGGCCC
Second: TACGAAGTCG
The switch fluorescence ratio of the first is lower: 0.9977 ± 0.005 for the first, 1.0075 ± 0.00084 for the second.

First: AGAAGAGGTG
Second: TTTCATGATC
The switch fluorescence ratio of the first is higher: 1.07 ± 0.029 for the first, 1 ± 0.026 for the second.

Compared with CGGTGTTAGC, TGGCAGCAGT is higher in switch fluorescence ratio: 0.976 ± 0.0015 for the first, 1.09 ± 0.019 for the second.

Sequence GGGTAACTTT has a switch fluorescence ratio of 1.08 ± 0.07.
